# From PMC9065369 (Cell Reports, 2022)
# B1: hsHDAC6 (1108-1215) (domain or fragment)
# chain: TPLPWCPHLVAVCPIPAAGLDVTQPCGDCGTIQENWVCLSCYQVYCGRYINGHMLQHHGNSGHPLVLSYIDLSAWCYYCQAYVHHQALLDVKNIAHQNKFGEDMPHPH
# Biological target: Mono ubiquitin (UniProt P0CG48 1-76)
# Assay: ITC
binder,measurement,value
B1,Kd,5.16 ± 0.47 µM
